Reference: publication PMC2725194

Experiments:
Assay in all cases: AlphaScreen or HTRF
[1] = molecular target: PPARδ ligand binding domain (LBD)
[2] = molecular target: PPARγ ligand binding domain (LBD)
[3] = molecular target: PPARα ligand binding domain (LBD)

AlphaScreen signal [1]: < 800 | AlphaScreen signal [2]: < 800 | AlphaScreen signal [3]: < 800
Substance: N-terminal biotinylated CBP1 peptide
